Results taken from US20190270798A1 (CHILDREN S MEDICAL CENTER, published 2019).

Columns and labels:
mouse LRRC33 = biological target: T1, mouse LRRC33 (mouse, UniProt Q8BMT4 20-693, limits assumed); assay: immunoprecipitation from 293T transfectant lysates, blot
T1 construct: also called mouse LRRC33 complexes
T1 sequence (looked up): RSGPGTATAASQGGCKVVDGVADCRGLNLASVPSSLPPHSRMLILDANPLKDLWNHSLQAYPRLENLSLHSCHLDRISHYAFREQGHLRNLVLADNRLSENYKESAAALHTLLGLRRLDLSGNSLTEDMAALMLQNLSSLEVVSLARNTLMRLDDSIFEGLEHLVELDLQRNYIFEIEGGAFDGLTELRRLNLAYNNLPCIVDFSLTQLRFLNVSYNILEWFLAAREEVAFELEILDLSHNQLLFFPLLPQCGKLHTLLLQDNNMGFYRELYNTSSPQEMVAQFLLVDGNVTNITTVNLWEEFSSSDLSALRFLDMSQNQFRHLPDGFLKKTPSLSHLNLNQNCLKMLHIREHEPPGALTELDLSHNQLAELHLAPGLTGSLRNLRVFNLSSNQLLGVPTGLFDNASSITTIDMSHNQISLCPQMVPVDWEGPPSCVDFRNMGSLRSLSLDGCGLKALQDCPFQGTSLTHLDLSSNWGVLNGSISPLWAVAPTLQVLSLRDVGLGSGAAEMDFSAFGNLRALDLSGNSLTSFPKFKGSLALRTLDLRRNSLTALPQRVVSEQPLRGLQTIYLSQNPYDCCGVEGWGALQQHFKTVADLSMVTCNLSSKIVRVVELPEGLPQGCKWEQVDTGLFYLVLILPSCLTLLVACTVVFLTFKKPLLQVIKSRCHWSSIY

[1] = biological target: T2, human Glycoprotein A Repetitions Predominant (GARP) (human, UniProt Q14392 20-662); assay: immunoprecipitation from L1.2 transfectant lysates, blot
T2 construct: whole, on cells; tested in cell lysates; also called LRRC32; FLAG-tagged GARP
T2 sequence (looked up): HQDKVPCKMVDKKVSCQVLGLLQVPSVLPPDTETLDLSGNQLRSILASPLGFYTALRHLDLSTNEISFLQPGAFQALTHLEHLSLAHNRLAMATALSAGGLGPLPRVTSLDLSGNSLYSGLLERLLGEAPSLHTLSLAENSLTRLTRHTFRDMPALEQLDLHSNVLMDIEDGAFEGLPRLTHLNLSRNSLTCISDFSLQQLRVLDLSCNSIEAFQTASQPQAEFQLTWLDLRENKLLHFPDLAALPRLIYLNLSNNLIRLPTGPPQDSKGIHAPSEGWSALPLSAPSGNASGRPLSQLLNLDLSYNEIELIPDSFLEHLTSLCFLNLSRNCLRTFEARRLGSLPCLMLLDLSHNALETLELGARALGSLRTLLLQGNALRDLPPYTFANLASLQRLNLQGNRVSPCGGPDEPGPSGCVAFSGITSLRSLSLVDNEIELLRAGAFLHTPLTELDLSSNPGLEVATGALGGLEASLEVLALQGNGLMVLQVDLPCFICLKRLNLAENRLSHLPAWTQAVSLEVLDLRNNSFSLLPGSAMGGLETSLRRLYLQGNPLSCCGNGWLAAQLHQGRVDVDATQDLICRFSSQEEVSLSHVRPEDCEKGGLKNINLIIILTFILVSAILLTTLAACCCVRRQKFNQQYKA
Experimental: Cell surface expression of FLAG-LRRC33, FLAG-33-32-X1, and FLAG-33-32-X5 were measured using FACS. Numbers show the MFI (mean fluorescence intensity). (B, C) The specificity of anti-LRRC33 antibody.
Anti-LRRC33 mAb was generated by immunizing Lac33^{-/-} mice with L1.2 cells that stably express the 33-32-X1 chimera on the cell surface. Hybridoma supernatants were screened by immunofluorescence flow cytometry (FACS) and an LRRC33 positive hybridoma was identified. This anti-LRRC33 mAb only recognizes human LRRC33, not GARP, in L1.2 transfectants by immunoprecipitates (IP) (FIG. 8B, line 2, 3).
After 48 hours of transfection, cells were collected and lysed in IP lysis buffer (50 mM Tris pH7.4, 150 mM NaCl, 2 mM EDTA, 1% NP-40), which was supplemented with a protease inhibitor cocktail (Roche) and subjected to western blot analysis or were used for immunoprecipitation with the indicated antibody. Performed as described previously {Wang et al, 2012}. L1.2 cells were transfected with indicated plasmid using electroporation. […]

binding result (mouse LRRC33): no binding
binding result [1]: no binding
B1: anti-LRRC33 monoclonal antibody (mAb) (antibody, V domains shown)
VH: EFQLQQSGPELVKPGASVKMSCKASGYSFTDSYMDWVKQSNGKTLEWIGLINPKYGTTTYNQKFKGKATLTVDQSSSTAYMQLNSLTSEDSAVYFCASLYYDYSAWFAYWGQGTLVTVSA
VL: QAVVTQESALTTSPGETVTLTCRSSTGAVTTSNYANWVQEKPDHLFTGLIGGTNNRAPGVPARFSGSLIGDKAALIITGAQTEDEAIYFCGLWFSNRWVFGGGTKLTVV
notes: Mouse hybridoma mAb raised in Lrrc33-/- mice against L1.2 cells expressing the 33-32-X1 chimera; also called anti-LRRC33 mAb; anti-LRRC33 antibody
